# Laboratory results published in article PMC9407527 (Proceedings of the National Academy of Sciences of the …, 2022).
# Square brackets hold non-standard residues; d marks the D form. Ends that are not written are not given here. * marks the point of attachment. MTSL = spin label, CC1(C)C=C(CS*)C(C)(C)N1[O]; pS = N[C@@H](COP(=O)(O)O)C(=O)O
# Columns and labels:
# [1] = molecular target: T1, occludin 413–522 α-helical bundle (NMR construct with the N-terminal extension GPLGS) (human, UniProt Q16625 413-522); experiment: NMR paramagnetic relaxation enhancement
# T1 sequence: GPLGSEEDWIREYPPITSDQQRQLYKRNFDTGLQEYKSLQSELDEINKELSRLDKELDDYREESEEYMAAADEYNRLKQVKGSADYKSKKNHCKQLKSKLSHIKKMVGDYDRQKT
# [2] = molecular target: T2, fluorescent-tagged His-tagged occludin 413–522 (human, UniProt Q16625 413-522, fluorescent label from the MonolithNT His-Tag Labeling Kit (NanoTemper)); experiment: MST
# T2 sequence (looked up): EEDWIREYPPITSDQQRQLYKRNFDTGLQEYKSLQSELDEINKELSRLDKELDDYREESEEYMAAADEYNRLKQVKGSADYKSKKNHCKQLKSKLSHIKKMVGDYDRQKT
Binder,binding result [1],Kd [2] [µM]
"AKGRAGRSKRTEQDHYETDYTTGGEDC(MTSL)DEL (peptide, UniProt Q16625 383-412, looked up) [occludin 383–412^S408D unstructured region peptide, MTSL-labelled at C409]",binds,
"AKGRAGRSKRTEQDHYETDYTTGGEAC(MTSL)DEL (peptide, UniProt Q16625 383-412, looked up) [occludin 383–412^S408A unstructured region peptide, MTSL-labelled at C409]",binds,
AKGRAGRSKRTEQDHYETDYTTGGE[pS]CDEL [synthetic occludin 383–412 peptide phosphorylated at S408],,37 ± 15
"AKGRAGRSKRTEQDHYETDYTTGGESCDEL [synthetic occludin 383–412 peptide, nonphosphorylated]",,175 ± 27
